Here are results for 25 molecules from patent US7101851 (dated 2006).

Bridges are numbered along the chain shown (N, C = ends). Where no end group is shown, it is not given here. [ ]: non-standard residue; d: D form. Ava = NCCCCC(=O)O

T1: alpha subunit of the human FcεRI receptor expressed on Chinese hamster ovary cells (human, UniProt P12319 26-257)
T1 construct: whole, on cells; also called CHO FcεRI+ cells
T1 sequence (looked up): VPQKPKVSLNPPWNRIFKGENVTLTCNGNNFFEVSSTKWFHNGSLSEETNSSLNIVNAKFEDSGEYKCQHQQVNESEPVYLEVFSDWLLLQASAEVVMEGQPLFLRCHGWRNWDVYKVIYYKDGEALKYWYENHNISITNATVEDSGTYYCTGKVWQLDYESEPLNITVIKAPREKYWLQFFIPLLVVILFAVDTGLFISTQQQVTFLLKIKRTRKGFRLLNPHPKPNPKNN

T2: alpha subunit of the human FcεRI receptor (IgE high affinity receptor), expressed on Chinese hamster ovary … (human, UniProt P12319 26-257)
T2 construct: whole, on cells; also called CHO FcεRI+ cells; FcεRIα
T2 sequence (looked up): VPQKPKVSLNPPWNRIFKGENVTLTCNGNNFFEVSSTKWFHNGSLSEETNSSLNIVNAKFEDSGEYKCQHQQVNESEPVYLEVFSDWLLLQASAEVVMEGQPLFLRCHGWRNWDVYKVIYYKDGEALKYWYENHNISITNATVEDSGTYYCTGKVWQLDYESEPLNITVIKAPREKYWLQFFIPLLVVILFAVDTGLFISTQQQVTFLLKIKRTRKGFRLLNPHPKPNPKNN

B1: IGE203 (peptide)
peptide: VQCPKFCYE[Ava]CPDVCYV-NH2
modifications: disulfide (positions not given here); not fully specified (bridges); printed as VQCPKFCYEavaCPDVCYV-nh2; also: dimer
B2: IGE202 (peptide)
peptide: VQCPDFCY[Ava]CPDVCYV-NH2
modifications: disulfide (positions not given here); not fully specified (bridges); printed as VQCPDFCYavaCPDVCYV-nh2
B3: IGE199 (peptide)
peptide: VQCPDFCY[Ava]LCPDVCYV-NH2
modifications: disulfide (positions not given here); not fully specified (bridges); printed as VQCPDFCYavaLCPDVCYV-nh2
B4: IGE198 (peptide)
peptide: VQCPHFCY[Ava]LCPDVCYV-NH2
modifications: disulfide (positions not given here); not fully specified (bridges); printed as VQCPHFCYavaLCPDVCYV-nh2
B5: IGE200 (peptide)
peptide: VQCPKFCY[Ava]LCPDVCYV-NH2
modifications: disulfide (positions not given here); not fully specified (bridges); printed as VQCPKFCYavaLCPDVCYV-nh2
B6: IGE201 (peptide)
peptide: VQCPDFCY[Ava]LCPDQCYV-NH2
modifications: disulfide (positions not given here); not fully specified (bridges); printed as VQCPDFCYavaLCPDQCYV-nh2
B7: IGE168 (peptide)
peptide: Ac-VQCPHFCYFGAELCPDVCYV-NH2
modifications: disulfide 7-14, 3-18
SMILES: CC(=O)N[C@H](C(=O)N[C@@H](CCC(N)=O)C(=O)N[C@H]1CSSC[C@@H](C(=O)N[C@@H](Cc2ccc(O)cc2)C(=O)N[C@H](C(N)=O)C(C)C)NC(=O)[C@H](C(C)C)NC(=O)[C@H](CC(=O)O)NC(=O)[C@@H]2CCCN2C(=O)[C@@H]2CSSC[C@H](NC(=O)[C@H](Cc3ccccc3)NC(=O)[C@H](Cc3c[nH]cn3)NC(=O)[C@@H]3CCCN3C1=O)C(=O)N[C@@H](Cc1ccc(O)cc1)C(=O)N[C@@H](Cc1ccccc1)C(=O)NCC(=O)N[C@@H](C)C(=O)N[C@@H](CCC(=O)O)C(=O)N[C@@H](CC(C)C)C(=O)N2)C(C)C
B8: IGE184 (peptide)
peptide: VQCPHFCYDYELCPDVCYV-NH2
modifications: disulfide 7-13, 3-17; N-terminus assumed
SMILES: CC(C)C[C@@H]1NC(=O)[C@H](CCC(=O)O)NC(=O)[C@H](Cc2ccc(O)cc2)NC(=O)[C@H](CC(=O)O)NC(=O)[C@H](Cc2ccc(O)cc2)NC(=O)[C@@H]2CSSC[C@H](NC1=O)C(=O)N1CCC[C@H]1C(=O)N[C@@H](CC(=O)O)C(=O)N[C@@H](C(C)C)C(=O)N[C@H](C(=O)N[C@@H](Cc1ccc(O)cc1)C(=O)N[C@H](C(N)=O)C(C)C)CSSC[C@H](NC(=O)[C@H](CCC(N)=O)NC(=O)[C@@H](N)C(C)C)C(=O)N1CCC[C@H]1C(=O)N[C@@H](Cc1c[nH]cn1)C(=O)N[C@@H](Cc1ccccc1)C(=O)N2
B9: IGE187 (peptide)
peptide: VQCPHFCYE[Ava]ELCPDVCYV-NH2
modifications: disulfide (positions not given here); not fully specified (bridges); printed as VQCPHFCYEavaELCPDVCYV-nh2
B10: IGE183 (peptide)
peptide: VQCPHFCYDASRLCPDVCYV-NH2
modifications: disulfide (positions not given here); not fully specified (bridges); printed as VQCPHFCYDASRLCPDVCYV-nh2
B11: IGE197 (peptide)
peptide: VQCPDFCYDASRLCPDVCYV-NH2
modifications: disulfide 7-14, 3-18; N-terminus assumed
SMILES: CC(C)C[C@@H]1NC(=O)[C@H](CCCNC(=N)N)NC(=O)[C@H](CO)NC(=O)[C@H](C)NC(=O)[C@H](CC(=O)O)NC(=O)[C@H](Cc2ccc(O)cc2)NC(=O)[C@@H]2CSSC[C@H](NC1=O)C(=O)N1CCC[C@H]1C(=O)N[C@@H](CC(=O)O)C(=O)N[C@@H](C(C)C)C(=O)N[C@H](C(=O)N[C@@H](Cc1ccc(O)cc1)C(=O)N[C@H](C(N)=O)C(C)C)CSSC[C@H](NC(=O)[C@H](CCC(N)=O)NC(=O)[C@@H](N)C(C)C)C(=O)N1CCC[C@H]1C(=O)N[C@@H](CC(=O)O)C(=O)N[C@@H](Cc1ccccc1)C(=O)N2
B12: IGE196 (peptide)
peptide: VQCPHFCYDASELCPDVCYV-NH2
modifications: disulfide (positions not given here); not fully specified (bridges); printed as VQCPHFCYDASELCPDVCYV-nh2
B13: IGE185 (peptide)
peptide: VQCPHFCYAEPLCPDVCYV-NH2
modifications: disulfide 7-13, 3-17; N-terminus assumed
SMILES: CC(C)C[C@@H]1NC(=O)[C@@H]2CCCN2C(=O)[C@H](CCC(=O)O)NC(=O)[C@H](C)NC(=O)[C@H](Cc2ccc(O)cc2)NC(=O)[C@@H]2CSSC[C@H](NC1=O)C(=O)N1CCC[C@H]1C(=O)N[C@@H](CC(=O)O)C(=O)N[C@@H](C(C)C)C(=O)N[C@H](C(=O)N[C@@H](Cc1ccc(O)cc1)C(=O)N[C@H](C(N)=O)C(C)C)CSSC[C@H](NC(=O)[C@H](CCC(N)=O)NC(=O)[C@@H](N)C(C)C)C(=O)N1CCC[C@H]1C(=O)N[C@@H](Cc1c[nH]cn1)C(=O)N[C@@H](Cc1ccccc1)C(=O)N2

The target of one assay is T1, alpha subunit of the human FcεRI …. Description: inhibition of 125I-IgE binding to CHO cells expressing human FcεRI alpha subunit. The method, then: (§1) To determine the ability of peptides to inhibit IgE binding to FcεRI, a cell-based binding assay was used with radiolabeled IgE. Chinese hamster ovary cells expressing the alpha subunit of the human FcεRI receptor were cultured overnight in Falcon 96 well microtiter plates at a concentration of 5 ×10^4 cells per well. The following day the cells were rinsed three times with PBS and then once with F12/DMEM. Peptide stocks were reconstituted in 100 mM Hepes buffered water, pH 7.2, at a concentration of 5 mg/mL. Working concentrations of the peptide were diluted in assay buffer (see below). 75 uL of a desired concentration of peptide was added to the top row of a separate 96 well microtiter plate and serially diluted 1:3 in 50 uL of the assay buffer (F12/DMEM, 1% BSA, 0.05% NaN_3 and 0.025 mM Hepes pH 7.2). Starting concentrations ranged from 50–500 uM. Next, 50 uL of the diluted peptide was transferred to the 96 microtiter well plate containing a monolayer of CHO FcεRI+ cells. […] Cells were […]
The IC50 is the point on the concentration scale where inhibition reaches its midpoint. On to Ac-CTEGPWGWFCI-NH2 (disulfide 1-10 (inferred), synthetic) [IGE046], for which the IC50 was 549000 nM.

Ac-CLEGPWGWFCI-NH2 (disulfide 1-10 (inferred), synthetic) [IGE044] registered an IC50 of 194000 nM.

CLEGPWGWFCI-NH2 (disulfide 1-10 (inferred), synthetic) [IGE045] yielded a half-maximal inhibitory concentration (IC50) of 300000 nM.

Molecule Ac-CLEGPWGWVCI-NH2 (disulfide 1-10 (inferred), synthetic) [IGE080] yielded a 50% inhibitory concentration (IC50) of 410000 nM.

The molecule CTEGPWGWFCI-NH2 (disulfide 1-10 (inferred), synthetic) [IGE047] yielded a 50% inhibitory concentration (IC50) of 741000 nM.

A further assay deals with T2, alpha subunit of the human FcεRI …. Description: inhibition of 125I-IgE binding to CHO cells expressing human FcεRI alpha; competitor IgE. The method, then:
as §1
For B1, the half-inhibitory concentration (IC50) worked out at 12900 nM.

The molecule B2 returned a half-maximal inhibitory concentration (IC50) of 132000 nM.

In the case of Ac-VQCPHFCYELDYELCPDVCYV-NH2 (not fully specified (bridges); cysteine pairing not given here) [IGE179], the half-inhibitory concentration (IC50) is 220 nM.

Regarding B3, the 50% inhibitory concentration (IC50) turned out to be 6670 nM.

The molecule B4 came in with a half-inhibitory concentration (IC50) of 7800 nM.

B5 displayed an IC50 of 11700 nM.

The molecule B6 had a concentration for half-maximal inhibition (IC50) of 14600 nM.

The molecule B7 registered a concentration for half-maximal inhibition (IC50) of 260 nM.

On to B8, for which the IC50 came out at 110 nM.

As for VQCPHFCYELFSRLCPDVCYV-NH2 (disulfide (positions not given here); also: two disulfides, pairing not settled) [IGE182], the IC50 turned out to be 80 nM.

B9 displayed an IC50 of 90 nM.

VQCPHFCYELDYEADRLCPDVCYV-NH2 (disulfide (positions not given here); also: two disulfides, pairing not settled) [IGE188] registered a 50% inhibitory concentration (IC50) of 980 nM.

For B10, the concentration for half-maximal inhibition (IC50) worked out at 30 nM.

Regarding B11, the IC50 stood at 120 nM.

With B12, the IC50 was 90 nM.

On to VQCPHFCYEL[Ava]ELCPDVCYV-NH2 (disulfide 7-14, 3-18) [IGE186], for which the half-inhibitory concentration (IC50) is 180 nM.

Consider CPHFCYFGAELCPDVCY-NH2 (not fully specified (bridges); cysteine pairing not given here) [IGE170], for which the half-inhibitory concentration (IC50) stood at 200 nM.

As for VQCPHFCYELDYEAGDERLCPDVCYV-NH2 (disulfide (positions not given here); also: two disulfides, pairing not settled) [IGE189], the 50% inhibitory concentration (IC50) was found to be 150 nM.

On to Ac-CPHFCYFGAELCPDVCY-NH2 (not fully specified (bridges); cysteine pairing not given here) [IGE171], for which the half-inhibitory concentration (IC50) was 290 nM.

B13 showed an IC50 of 76 nM.
